Assays:
[1] = system: stable cell lines overexpressing a cell-surface antigen of interest or human tumor cell lines; test: Flow cytometry (FACS) binding to cell surface antigen; assay type: cell-based; conditions: IL-6R VD in N-terminal position; 2 μg/mL
Protocol: Stable cell lines overexpressing cell-surface antigen of interest or human tumor cell lines were harvested from tissue culture flasks and resuspended in phosphate buffered saline (PBS) containing 5% fetal calf serum (PBS/FCS). Prior to staining, human tumor cells were incubated on ice with human IgG at 200 μg/ml in PBS/FCS. 1-5×10^5 cells were incubated with antibody or DVD-Ig (1-2 μg/mL) in PBS/FCS for 30-60 minutes on ice. […] After 30 minutes incubation on ice, cells were washed twice and resuspended in PBS/FCS. Fluorescence was measured using a Becton Dickinson FACSCalibur (Becton Dickinson, San Jose, Calif.).
Stable cell lines overexpressing a cell-surface antigen of interest or human tumor cell lines were harvested from tissue culture flasks and resuspended in phosphate buffered saline (PBS) containing 5% fetal bovine serum (PBS/FBS). Prior to staining, human tumor cells were incubated on ice with (100 μl) human IgG at 5 μg/ml in PBS/FCS. 1-5×10^5 cells were incubated with antibody or DVD-Ig (2 μg/mL) in PBS/FBS for 30-60 minutes on ice. […] After 30 minutes incubation on ice, cells were washed twice and resuspended in PBS/FBS. Fluorescence was measured using a Becton Dickinson FACSCalibur (Becton Dickinson, San Jose, Calif.).
The geometric mean is the n root of the multiplication product of n fluorescent signals (a1×a2×a3 . . . an). […]

target antigen = test: BIACORE affinity determination of parent antibodies and DVD-Ig constructs; assay type: binding; conditions: antigen IL-6R, 25° C.
Protocol: The BIACORE assay (Biacore, Inc, Piscataway, N.J.) determines the affinity of antibodies or DVD-Ig with kinetic measurements of on-rate and off-rate constants. […] All chemicals are obtained from Biacore® AB (Uppsala, Sweden) or otherwise from a different source as described in the text. For example, approximately 5000 RU of goat anti-mouse IgG, (Fcγ), fragment specific polyclonal antibody (Pierce Biotechnology Inc, Rockford, Ill.) diluted in 10 mM sodium acetate (pH 4.5) is directly immobilized across a CM5 research grade biosensor chip using a standard amine coupling kit according to manufacturer's instructions and procedures at 25 μg/ml. Unreacted moieties on the biosensor surface are blocked with ethanolamine. Modified carboxymethyl dextran surface in flowcell 2 and 4 is used as a reaction surface. Unmodified carboxymethyl dextran without goat anti-mouse IgG in flow cell 1 and 3 is used as the reference surface. For kinetic analysis, rate equations derived from the 1:1 Langmuir binding model are fitted simultaneously to association and dissociation phases of all eight injections (using global fit analysis) with the use of Biaevaluation 4.0.1 software. Purified antibodies or DVD-Ig are diluted in HEPES-buffered saline for capture across goat anti-mouse IgG specific reaction surfaces. Antibodies or DVD-Ig to be captured as a ligand (25 μg/ml) are injected over reaction matrices at a flow rate of 5 μl/min. The association and dissociation rate constants, kon (M^−1 s^−1) and koff (s^−1) are determined under a continuous flow rate of 25 μl/min. Rate constants are derived by making kinetic binding measurements at different antigen concentrations ranging from 10-200 nM. The equilibrium dissociation constant (M) of the reaction between antibodies or DVD-Igs and the target antigen is then calculated from the kinetic rate constants by the following formula: KD=koff/kon. Binding is recorded as a function of time and kinetic rate constants are calculated. In this assay, on-rates as fast as 10^6 M^−1 s^−1 and off-rates as slow as 10^−6 s^−1 can be measured.

[2] = PGE2-biotinamide ELISA (PGE2 binding); conditions: PGE2 VD in C-terminal position, read-out: Direct Bind ELISA C-terminal VD EC50
Outline: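 Antibody or DVD-Ig (1 µg/ml) captured on anti-host Fc IgG-coated plates for 1 h at room temperature, then titrated with PGE2-biotinamide serially diluted from 30 nM for 1 h. Binding detected with streptavidin-polyHRP and TMB, absorbance read at 450 nm; EC50 from the titration curve.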

EC50 [2]: 1.65 nM
B1: DVD152: DVD-Ig construct listed in Table 4 (antibody)
VH: EVQLQESGPGLVRPSQTLSLTCTVSGYSITSDHAWSWVRQPPGRGLEWIGYISYSGITTYNPSLKSRVTMLRDTSKNQFSLRLSSVTAADTAVYYCARSLARTTAMDYWGQGSLVTVSSASTKGPEVQLVQSGAEVKKPGASVKVSCKASGYTFTKYWLGWVRQAPGQGLEWMGDIYPGYDYTHYNEKFKDRVTLTTDTSTSTAYMELRSLRSDDTAVYYCARSDGSSTYWGQGTLVTVSS
VL: DIQMTQSPSSLSASVGDRVTITCRASQDISSYLNWYQQKPGKAPKLLIYYTSRLHSGVPSRFSGSGSGTDFTFTISSLQPEDIATYYCQQGNTLPYTFGQGTKVEIKRTVAAPDVLMTQTPLSLPVTPGEPASISCTSSQNIVHSNGNTYLEWYLQKPGQSPQLLIYKVSNRFSGVPDRFSGSGSGTDFTLKISRVEAEDVGVYYCFQVSHVPYTFGGGTKVEIKR
FACS Geometric Mean N-terminal [1]: 9.13
koff (target antigen; IL-6R binding by C-terminal domain): 0.00015 s⁻¹
koff (target antigen; IL-6R binding by N-terminal domain): 0.000115 s⁻¹

— patent publication US8822645B2, “Prostaglandin E2 dual variable domain immunoglobulins and uses thereof” (AbbVie Inc., priority 2008, dated 2014)
